Data on one molecule can be found in patent CN101627111A (CENTOCOR INC, dated 2010).

This test addresses human tissue factor on HCT 116 human colon carcinoma cells (human, UniProt P13726 33-295). The test can be described thus: cell-based or functional assay.

B1: CNTO 860 produced in YB2/0-derived host cell line C1083B (antibody, human IgG1, kappa, V domains shown)
VH: QVQLVESGGGVVQPGRSLRLSCKASGFNIKDYYMHWVRQAPGKGLEWIGLIDPENGNTIYDPKFQGRFTISADNSKNTLFLQMDSLRPEDTAVYYCARDNSYYFDYWGQGTPVTVSS
VL: DIQMTQSPSSLSASVGDRVTITCKASQDIRKYLNWYQQKPGKAPKLLIYYATSLADGVPSRFSGSGSGTDYTFTISSLQPEDIATYYCLQHGESPYTFGQGTKLEITR
modifications: Fc N-glycan about 40% fucosylated
For B1, the “ADCC potency (EC50 and maximal lysis) against C463-derived CNTO 860” value was 20 to 60 倍.
